Experimental data published in the supplement of paper PMC9233669.
Fewer inactive variants are shown than the library holds.

Assays:
biotinyl-Met-oxazolone = assay: self-aminoacylation, catalytic enhancement (BMO) (fold over background); higher = more active; k-Seq, kA / k0A0; sequences stand for … in GGGAAUGGAUCCACAUCUACGAAUUC…UUCACUGCAGACUUGACGAAGCUG
Procedure, shortened: (§1)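 Each biotinyl-aminoacyl-oxazolone, at 2–1250 μM, was incubated with mutagenized RNA pools (0.43 μM) carrying a 21-nt variable region. The 50 μL reactions contained HEPES/NaCl/KCl/MgCl2/CaCl2 buffer with 5% acetonitrile at pH 6.9–7.0 and ran for 90 minutes at room temperature. After streptavidin capture, RNA was measured by qPCR in triplicate and by Illumina sequencing, and catalytic enhancement was calculated as median kA over the uncatalyzed rate from a pseudo-first-order fit of per-sequence fraction reacted.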

biotinyl-Val-oxazolone = assay: self-aminoacylation, catalytic enhancement (BVO) (fold over background); higher = more active; k-Seq, kA / k0A0; sequences stand for … in GGGAAUGGAUCCACAUCUACGAAUUC…UUCACUGCAGACUUGACGAAGCUG
Procedure, shortened: as §1

biotinyl-Trp-oxazolone = assay: self-aminoacylation, catalytic enhancement (BWO) (fold over background); higher = more active; k-Seq, kA / k0A0; sequences stand for … in GGGAAUGGAUCCACAUCUACGAAUUC…UUCACUGCAGACUUGACGAAGCUG
Procedure, shortened: as §1

biotinyl-Ile-oxazolone = assay: self-aminoacylation, catalytic enhancement (BIO) (fold over background); higher = more active; k-Seq, kA / k0A0; sequences stand for … in GGGAAUGGAUCCACAUCUACGAAUUC…UUCACUGCAGACUUGACGAAGCUG
Procedure, shortened: as §1

biotinyl-Leu-oxazolone = assay: self-aminoacylation, catalytic enhancement (BLO) (fold over background); higher = more active; k-Seq, kA / k0A0; sequences stand for … in GGGAAUGGAUCCACAUCUACGAAUUC…UUCACUGCAGACUUGACGAAGCUG
Procedure, shortened: as §1

biotinyl-Phe-oxazolone = assay: self-aminoacylation, catalytic enhancement (BFO) (fold over background); higher = more active; k-Seq, kA / k0A0; sequences stand for … in GGGAAUGGAUCCACAUCUACGAAUUC…UUCACUGCAGACUUGACGAAGCUG
Procedure, shortened: as §1

Row | Sequence | self-aminoacylation (biotinyl-Met-oxazolone) | self-aminoacylation (biotinyl-Val-oxazolone) | self-aminoacylation (biotinyl-Trp-oxazolone) | self-aminoacylation (biotinyl-Ile-oxazolone) | self-aminoacylation (biotinyl-Leu-oxazolone) | self-aminoacylation (biotinyl-Phe-oxazolone)
1 | CUACUUCAAACAAUCGUUCAG [Fam1A.1 aminoacylation ribozyme variant] | 0.566 | 0.769 | 0.523 | 0.658 | 0.497 | 0.81
2 | ACUCAUCUAGGUCAUCGGGUG [Fam2.2 aminoacylation ribozyme variant] | 6.28 | 5.04 | 7.26 | 5.55 | 6.97 | 42.4
3 | AAGUUUGUUAAUAAUCGCAAG [Fam3.1 aminoacylation ribozyme variant] | 0.824 | 0.842 | 0.883 | 0.928 | 0.995 | 1.05
4 | AAGUUUGCUAAUAGUCGCCGG [Fam3.1 aminoacylation ribozyme variant] | 5.01 | 4.14 | 5.77 | 3.08 | 3.53 | 10.5
5 | AAGCUUGCUAAUGGUCGCAAG [Fam3.1 aminoacylation ribozyme variant] | 2.83 | 1.76 | 3.95 | 1.77 | 1.83 | 2.3
6 | AAGUUAGCUCAUAGUCGCAAG [Fam3.1 aminoacylation ribozyme variant] | 1.88 | 1.61 | 1.81 | 1.85 | 2.45 | 3.16
7 | CAACUUCAAACAAUCGGUAUG [Fam1A.1 aminoacylation ribozyme variant] | 1.31 | 1.04 | 21 | 1.21 | 1.61 | 33.3
8 | AUUACCUUGUUCAUCGAGUGA [Fam2.1 aminoacylation ribozyme variant] | 6.95 | 3.95 | 8.47 | 3.4 | 6.6 | 26.1
9 | AUUCACCUAGGUAAUCGGGUG [Fam2.2 aminoacylation ribozyme variant] | 2.8 | 1.85 | 2.81 | 1.85 | 3.64 | 17.5
10 | AAGUUUUCUAAUAGUCGCGAG [Fam3.1 aminoacylation ribozyme variant] | 1.84 | 1.71 | 2.99 | 2.02 | 1.88 | 5.94
11 | AAGUUUGCUAAGAGACGCAAG [Fam3.1 aminoacylation ribozyme variant] | 0.544 | 0.76 | 0.74 | 0.661 | 0.967 | 1.28
12 | AAGUUGGCUGAUAGUCGCAAG [Fam3.1 aminoacylation ribozyme variant] | 1.49 | 1.7 | 1.86 | 1.8 | 1.55 | 2.34
13 | AUUCAGCUAGGUAAUCGGGUG [Fam2.2 aminoacylation ribozyme variant] | 4.03 | 2.65 | 4.43 | 2.69 | 4.57 | 23.8
14 | AUUACCCUGUUCAUGGAGUGA [Fam2.1 aminoacylation ribozyme variant] | 11.1 | 5.28 | 11.8 | 5.12 | 11.4 | 62.8
15 | AUUCACCUAGGUCAACGCGUG [Fam2.2 aminoacylation ribozyme variant] | 5.53 | 3.6 | 5.44 | 3.59 | 7.6 | 43.4
16 | CCACACUUCAAGCCAUUGGUC [Fam1B.1 aminoacylation ribozyme variant] | 0.874 | 1.09 | 0.734 | 0.787 | 0.848 | 0.631
17 | AUUAUCCUGGUCAUAGAGUGA [Fam2.1 aminoacylation ribozyme variant] | 9.86 | 4.11 | 11.7 | 4.58 | 10.1 | 59
18 | CUACUUCAGACAAUCGUUCUG [Fam1A.1 aminoacylation ribozyme variant] | 0.477 | 0.659 | 0.342 | 0.59 | 0.512 | 0.453
19 | AAGUUACCUAAUAGUCGCAAG [Fam3.1 aminoacylation ribozyme variant] | 1.44 | 1.4 | 1.74 | 1.25 | 1.39 | 2.52
20 | AUUUUCCUAGGUCAUCGGGUG [Fam2.2 aminoacylation ribozyme variant] | 6.79 | 4.16 | 6.89 | 4.64 | 9.58 | 30.9
21 | AUGUUUGCUGAUAGUCGCAAG [Fam3.1 aminoacylation ribozyme variant] | 1.1 | 1.37 | 1.38 | 1.81 | 1.33 | 3.84
22 | AUUACGCUGGUCAUCGAGUUA [Fam2.1 aminoacylation ribozyme variant] | 1.54 | 1.43 | 0.917 | 1.28 | 1.41 | 0.893
23 | CCACGAUUCAAGCAAUCGGUC [Fam1B.1 aminoacylation ribozyme variant] | 1.78 | 1.47 | 1.95 | 1.51 | 1.17 | 1.89
24 | ACUCACCUAGGUAAUCGGGUG [Fam2.2 aminoacylation ribozyme variant] | 4.2 | 2.85 | 4.3 | 3.22 | 3.66 | 23.9
25 | AAGUUUGGUAAGAGUCGCAAG [Fam3.1 aminoacylation ribozyme variant] | 1.3 | 1.3 | 1.31 | 1.58 | 1.43 | 1.7
26 | CCGCACUUCAAGCAAUCGGAC [Fam1B.1 aminoacylation ribozyme variant] | 1 | 1.12 | 1.86 | 1.07 | 0.812 | 1.31

Row | Sequence | self-aminoacylation (biotinyl-Met-oxazolone) | self-aminoacylation (biotinyl-Val-oxazolone) | self-aminoacylation (biotinyl-Trp-oxazolone) | self-aminoacylation (biotinyl-Ile-oxazolone) | self-aminoacylation (biotinyl-Leu-oxazolone) | self-aminoacylation (biotinyl-Phe-oxazolone)
27 | AAGUGUGCUAAUAGUCGCAAG [Fam3.1 aminoacylation ribozyme variant] | 1.69 | 1.36 | 6.71 | 1.56 | 1.36 | 21.7
28 | CUACUUCAAUUAAUCGGUCUG [Fam1A.1 aminoacylation ribozyme variant] | 1.03 | 0.985 | 13.9 | 1.08 | 1.33 | 18.7
29 | AUUACCCUGGUUAUCGAGGGA [Fam2.1 aminoacylation ribozyme variant] | 1.4 | 1.16 | 1.79 | 1.55 | 0.955 | 1.16
30 | CUACUUCAAACAAUCAGUCUU [Fam1A.1 aminoacylation ribozyme variant] | 0.854 | 0.942 | 4.96 | 0.938 | 0.935 | 13.2
31 | AAGUUUGAUAUUAGUCGCAAG [Fam3.1 aminoacylation ribozyme variant] | 1.24 | 1.4 | 1.31 | 1.45 | 1.54 | 1.72
32 | AUUCACCUAGGUCAUCGGGGA [Fam2.2 aminoacylation ribozyme variant] | 19.8 | 9.77 | 15.5 | 11.4 | 26 | 123
33 | AUUACCCUGCUCAUCCAGUGA [Fam2.1 aminoacylation ribozyme variant] | 5.54 | 3.34 | 7.43 | 3.06 | 6.26 | 34.2
34 | GAACACUUCAAGCAAUCGGUC [Fam1B.1 aminoacylation ribozyme variant] | 1.53 | 2.03 | 18.6 | 2.05 | 1.96 | 23.3
35 | CUACUUCAAAUAAUCGGUGUG [Fam1A.1 aminoacylation ribozyme variant] | 0.983 | 0.826 | 2.4 | 0.826 | 1 | 3.23
36 | UUUCACCUAUGUCAUCGGGUG [Fam2.2 aminoacylation ribozyme variant] | 4.6 | 3.56 | 5.28 | 3.35 | 5.1 | 31.4
37 | AUUCCCCUGGUCAUCGAGUUA [Fam2.1 aminoacylation ribozyme variant] | 1.09 | 1.36 | 1.08 | 1.33 | 1.19 | 1.25
38 | AUUACCCUCCUCAUCGAGUGA [Fam2.1 aminoacylation ribozyme variant] | 3.98 | 2.08 | 4.74 | 1.81 | 3.99 | 15
39 | CCAAACUUCAAGAAAUCGGUC [Fam1B.1 aminoacylation ribozyme variant] | 0.927 | 0.84 | 5.02 | 0.936 | 0.986 | 6.01
40 | CUACUACAAACAAUCGGUCAG [Fam1A.1 aminoacylation ribozyme variant] | 0.547 | 0.646 | 0.537 | 0.561 | 0.414 | 0.636
41 | CUACACUUCAUGCAAUCGGUC [Fam1B.1 aminoacylation ribozyme variant] | 0.623 | 0.693 | 0.496 | 0.707 | 0.516 | 0.689
42 | CCACACUUCAAGCUAUCGGUG [Fam1B.1 aminoacylation ribozyme variant] | 5.19 | 3.77 | 5.5 | 3.88 | 6.48 | 33
43 | AUUCCCCUGGCCAUCGAGUGA [Fam2.1 aminoacylation ribozyme variant] | 6.17 | 4.87 | 6.48 | 3.34 | 8.45 | 46.6
44 | CCACACAUCAAGCAAUGGGUC [Fam1B.1 aminoacylation ribozyme variant] | 0.97 | 1.08 | 0.706 | 1.08 | 0.806 | 1.33
45 | CCACGCUUCAACCAAUCGGUC [Fam1B.1 aminoacylation ribozyme variant] | 1.37 | 1.55 | 40.4 | 1.16 | 1.99 | 65.2
46 | AAGUUUGCUAAUAUUGGCAAG [Fam3.1 aminoacylation ribozyme variant] | 0.894 | 0.784 | 1.22 | 0.773 | 0.847 | 0.81
47 | AUUCACCAAAGUCAUCGGGUG [Fam2.2 aminoacylation ribozyme variant] | 15.3 | 8.23 | 13.6 | 9.57 | 19.5 | 110
48 | AAGUUUGCAAGUAGUCGCAAG [Fam3.1 aminoacylation ribozyme variant] | 1.06 | 0.914 | 1.06 | 0.95 | 0.731 | 1.14
49 | AUUCACGUAGGUCAUCUGGUG [Fam2.2 aminoacylation ribozyme variant] | 5.3 | 3.61 | 4.82 | 3.05 | 5.52 | 31.2
50 | CAACUUCAAGCAAUCGGUCUG [Fam1A.1 aminoacylation ribozyme variant] | 1.59 | 1.39 | 20.5 | 1.54 | 2.26 | 27.2
51 | CUGCACCUAGGUCAUCGGGUG [Fam2.2 aminoacylation ribozyme variant] | 7.52 | 5.11 | 6.48 | 3.76 | 7.81 | 60
